Earlier results, collected in publication PMC5302535.

Target: transferrin receptor (TfR) (Homo sapiens) (UniProt P02786)
Sequence (P02786 89-760): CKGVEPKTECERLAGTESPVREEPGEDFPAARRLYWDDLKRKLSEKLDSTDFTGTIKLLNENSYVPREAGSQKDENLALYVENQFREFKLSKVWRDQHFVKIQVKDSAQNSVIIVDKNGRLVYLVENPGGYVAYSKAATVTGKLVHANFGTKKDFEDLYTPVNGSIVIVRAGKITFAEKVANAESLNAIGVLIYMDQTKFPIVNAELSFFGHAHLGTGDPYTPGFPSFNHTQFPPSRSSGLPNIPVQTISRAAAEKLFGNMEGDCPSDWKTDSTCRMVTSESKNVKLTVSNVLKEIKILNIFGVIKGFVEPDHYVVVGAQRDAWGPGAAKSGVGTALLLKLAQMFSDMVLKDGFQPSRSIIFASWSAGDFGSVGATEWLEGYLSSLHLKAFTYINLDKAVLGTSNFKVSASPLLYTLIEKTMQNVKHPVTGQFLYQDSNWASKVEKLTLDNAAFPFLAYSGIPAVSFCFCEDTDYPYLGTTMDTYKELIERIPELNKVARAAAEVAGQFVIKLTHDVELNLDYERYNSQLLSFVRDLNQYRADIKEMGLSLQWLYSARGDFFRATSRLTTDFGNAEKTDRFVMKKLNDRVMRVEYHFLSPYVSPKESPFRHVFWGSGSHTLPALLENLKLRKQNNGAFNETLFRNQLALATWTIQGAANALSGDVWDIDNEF

With T7 peptide as the substance, how does the Kd read?
The Kd was 10 nM.
